From patent publication US11339383B2, “G proteins” (HEPTARES THERAPEUTICS LIMITED, priority 2016, dated 2022)
Numbering of substitutions follows the chain as printed. Numbers in names are those of the source.

B1: Mini-Gs/q70: mini-Gs with R380K Q384L R385Q H387N Q390E E392N L394V (protein)
chain: GIEKQLQKDKQVYRATHRLLLLGADNSGKSTIVKQMRILHGGSGGSGGTSGIFETKFQVDKVNFHMFDVGGQRDERRKWIQCFNDVTAIIFVVDSSDYNRLQEALNDFKSIWNNRWLRTISVILFLNKQDLLAEKVLAGKSKIEDYFPEFARYTTPEDATPEPGEDPRVTRAKYFIRDEFLRISTASGDGRHYCYPHFTCAVDTENARRIFNDCKDIILQMNLREYNLV
B2: Mini-Gs/i148: mini-Gs/i1 chimera construct 48; SEQ ID NO:112 (protein)
chain: MGHHHHHHENLYFQGNSKTEDQRNEEKAQREANKKIEKQLQKDKQVYRATHRLLLLGADNSGKSTIVKQMRILHGGSGGSGGTSGIFETKFQVDKVNFHMFDVGGQRDERRKWIQCFNDVTAIIFVVDSSDYNRLQEALNLFKSIWNNRWLRTISVILFLNKQDLLAEKVLAGKSKIEDYFPEFARYTTPEDATPEPGEDPRVTRAKYFIRDEFLRISTASGDGRHYCYPHFTCAVDTENARRIFNDVTDIIIKMNLRDCGLF
modifications: Mini-Gs/i148
B3: mini-Gs/o_16: mini-Gs/o1 chimera construct 16; SEQ ID NO:139 (protein)
chain: B2 chain with K254A, D259G, F263Y
modifications: miniGs/o_16
B4: Mini-Golf6: mini-G protein of Golf, 7 point mutations and 3 deletions from mini-Gs; SEQ ID NO:105 (protein)
chain: MGHHHHHHENLYFQGIEKQLQKERLAYKATHRLLLLGADNSGKSTIVKQMRILHGGSGGSGGTSGIFETRFQVDKVNFHMFDVGGQRDERRKWIQCFNDVTAIIYVADCSDYNRLRESLDDFESIWNNRWLRTISIILFLNKQDMLAEKVLAGKSKIEDYFPEYANYTVPEDATPDAGEDPKVTRAKFFIRDLFLRISTATGDGKHYCYPHFTCAVDTENARRIFNDCRDIIQRMHLKQYELL
modifications: Mini-Golf6
B5: Mini Gs77 (protein)
chain: MGHHHHHHANKKIEKQLQKDKQVYRATHRLLLLGAGESGKSTIVKQMRILHVNGGGDQDALRSRVLTSGIFETKFQVDKVNFHMFDVGGQRDERRKWIQCFNDVTAIIFVVASSSYNMVIREDNQTNRLQEALNLFKSIWNNRWLRTISVILFLNKQDLLAEKVLAGKSKIEDYFPEFARYTTPEDATPEPGEDPRVTRAKYFIRDEFLRISTASGDGRHYCYPHFTCAVDTENIRRVFNDCRDIIQRMHLRQYELL
modifications: MINI GS77
B6: Mini Gs393 (protein)
chain: MGHHHHHHENLYFQGIEKQLQKDKQVYRATHRLLLLGADNSGKSTIVKQMRILHGGSGGSGGTSGIFETKFQVDKVNFHMFDVGGQRDERRKWIQCFNDVTAIIFVVDSSDYNRLQEALNDFKSIWNNRWLRTISVILFLNKQDLLAEKVLAGKSKIEDYFPEFARYTTPEDATPEPGEDPRVTRAKYFIRDEFLRISTASGDGRHYCYPHFTCAVDTENARRIFNDCRDIIQRMHLRQYELL
modifications: N-terminal His tag, TEV site; MINI GS393
B7: Mini-Gs/q57: mini-Gs with five C-terminal residues changed to Gαq (Q390E, E392N, L394V) (protein)
chain: B6 chain with Q239E, E241N, L243V
modifications: Mini-Gs/q57
B8: Mini-Gs/i143: mini-Gs with 9 α5 helix mutations changing coupling specificity to Gi1; SEQ ID NO:111 (protein)
chain: B6 chain with C228V, R229T, Q233I, R234K, H236N, Q239D, Y240C, E241G, L243F
modifications: Mini-Gs/i143
B9: Mini-G128: mini-G protein of G12, construct 8; SEQ ID NO:114 (protein)
chain: MGHHHHHHENLYFQGIDALLARERRAVRRLVKILLLGADNSGKSTFLKQMRIIHGGSGGSGGTKGIVEHDFVIKKIPFKMVDVGGQRSQRQKWFQCFDGITSILFMVDSSDYNRLVESMNDFETIVNNKLFFNVSIILFLNKMDLLVEKVKTVSIKKHFPDFRGDPHRLEDVQRYLVQCFDRKRRNRSKPLFHHFTTAIDTENARFIFHAVKDTILQENLKDIMLQ
modifications: Mini-G128
B10: Mini-Go112: mini-G protein of Go1, construct 12; SEQ ID NO:113 (protein)
chain: MGHHHHHHENLYFQGIEKNLKEDGISAAKDVKLLLLGADNSGKSTIVKQMKIIHGGSGGSGGTTGIVETHFTFKNLHFRLFDVGGQRSERKKWIHCFEDVTAIIFCVDLSDYNRMHESLMDFDSICNNKFFIDTSIILFLNKKDLFGEKIKKSPLTICFPEYTGPNTYEDAAAYIQAQFESKNRSPNKEIYCHMTCATDTNNAQVIFDAVTDIIIANNLRGCGLY
modifications: Mini-Go112

Experiments:
[1] = target: T1, β1AR-84 (Meleagris gallopavo, UniProt P07700, C116L/C358A/D322K/DEL244-271/F327A/F338M/M44C/M90V/V103C); assay type: binding, turkey; conditions: membranes
T1 construct: His6 (C); made in house; host or cells: Trichoplusia ni (High Five) insect cells, BaculoGold baculovirus
T1 sequence (P07700 other isoform, or with tags, fused parts or gaps M44C/M90V/V103C/C116L/DEL244-271/D322K/F327A/F338M/C358A): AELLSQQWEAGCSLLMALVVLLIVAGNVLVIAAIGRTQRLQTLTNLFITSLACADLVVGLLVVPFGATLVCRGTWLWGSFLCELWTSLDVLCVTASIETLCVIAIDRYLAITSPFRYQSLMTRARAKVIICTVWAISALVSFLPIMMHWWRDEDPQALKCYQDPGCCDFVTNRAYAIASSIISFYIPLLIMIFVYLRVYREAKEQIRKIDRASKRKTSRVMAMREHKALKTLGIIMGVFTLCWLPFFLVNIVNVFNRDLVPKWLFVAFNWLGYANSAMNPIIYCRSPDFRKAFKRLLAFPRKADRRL

[2] = target: T1, β1AR-84; experiment: Saturation binding assay, ^3H-DHA binding to β1AR-84; set-up: species or system turkey; conditions: insect cell membranes, 20° C.
Protocol: FIG. 2. Saturation binding data for β1AR constructs. […] Data represent mean±SEM of three independent experiments. Curves shown are from a representative experiment performed in duplicate.
Insect cells expressing β1AR were resuspended in 1 ml of assay buffer (20 mM HEPES, pH 7.5, 100 mM NaCl), supplemented with Complete EDTA-free protease inhibitors (Roche). Cells were broken by 10 passages through a bent 26 G needle. Cell debris was removed by centrifugation (3000 g for 5 mins at 4° C.). The supernatant was diluted and 2×0.96 ml aliquots taken for each sample. Alprenolol (120 μl) was added to the negative sample (1 mM final concentration) and assay buffer (120 μl) was added to the positive sample. Samples were aliquoted (12×108 μl) into a PCR plate. [^3H]-dihydroalprenolol (12 μl) was added to each well (to give final concentrations in the range: 2.5 nM-2.56 μM). Samples were mixed and incubated at 20° C. for 2 h. Samples (2×50 μl duplicates) were vacuum filtered through 96-well glass fibre filter plates (Merck Millipore), pre-soaked with PEI (0.1%). Each well was washed with assay buffer (3×200 μl). Filters were dried, punched into scintillation vials and 4 ml Ultima Gold scintillant (Perkin Elmer) was added. Radioactivity was quantified by scintillation counting (1 min per sample) using a Tri-Carb counter (Perkin Elmer). Data for negative samples were subtracted from positive samples. […]

[3] = target: A2AR (Homo sapiens, UniProt P29274, N154A); experiment: Thermostability assay of ^3H-NECA-bound A2AR
Sequence of A2AR (P29274 1-317 N154A): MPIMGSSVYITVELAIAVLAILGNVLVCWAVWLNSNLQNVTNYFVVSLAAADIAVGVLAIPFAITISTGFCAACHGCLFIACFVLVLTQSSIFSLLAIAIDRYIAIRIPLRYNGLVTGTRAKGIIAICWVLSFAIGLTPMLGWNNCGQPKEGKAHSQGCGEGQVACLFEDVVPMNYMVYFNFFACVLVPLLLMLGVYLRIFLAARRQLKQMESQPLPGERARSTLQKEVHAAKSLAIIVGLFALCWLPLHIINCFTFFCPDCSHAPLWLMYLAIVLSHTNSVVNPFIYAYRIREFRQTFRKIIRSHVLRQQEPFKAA
Protocol: The samples were incubated at room temperature for 1 h, then chilled on ice for 30 min. DDM, DM or OG were added to a final concentration of 0.1%, 0.13% or 0.8%, respectively, and samples were incubated on ice for 1 h. Cell debris was removed by centrifugation for 5 min at 20,000×g and the supernatant was aliquoted into PCR strips. Samples were heated to the desired temperature for exactly 30 min, then quenched on ice for 30 min. Samples (50 μl) were loaded onto gel filtration resin packed into a 96-well filter plate (Millipore), which was centrifuged to separate receptor-bound from free radioligand. […] Data were analyzed by nonlinear regression using GraphPad Prism software. Apparent Tm values were derived from sigmoidal dose-response analysis. Results represent the mean±SEM of two independent experiments, performed in duplicate.
Samples were heated to the desired temperature for exactly 30 min, then quenched on ice for 30 min. Samples (50 μl) were loaded onto gel-filtration resin (Toyopearl HW-40F) packed into a 96-well filter plate (Millipore), which was centrifuged to separate receptor-bound from free radioligand [28]. […] Data were analysed by nonlinear regression using GraphPad Prism software. Apparent Tm values were derived from sigmoidal dose-response analysis performed by non-liner regression. Results represent the mean±SEM of two independent experiments, performed in duplicate.

[4] = Stability of mini-G proteins in detergent by native DSF; assay type: physicochemical; conditions: 2 mg/ml, onset of scattering
Protocol: (§1) For constructs see FIGS. 29 and 35-37. Expression, purification and stability measurements by differential scanning fluorimetry (DSF) of the mini-G proteins as well as the non-lipidated Gβ1γ2 dimer, were performed following the protocols described in Example 1. The stability of mini-G proteins was also determined in detergent using native DSF (NanoTemper Prometheus). Mini-G proteins (2 mg/ml) in 50 mM HEPES pH 7.5 (KOH), 20 mM MgCl2, 50 mM NaCl, 1 μM GDP were mixed with either no detergent (control), 0.1% LMNG or 0.1% DDM. Samples were incubated on ice (minimum 30 min) prior to heating on the Prometheus (20% excitation, 15° C.-85° C., rate of 2.0° C./min) and the onset of scattering determined.

[5] = Thermostability of GDP-bound mini G proteins by differential scanning fluorimetry (DSF); assay type: physicochemical; conditions: mini-G protein alone, GDP-bound
Protocol: SYPRO-orange (15 μl) was added from a 20× stock solution to give a final concentration of 2×. Samples were mixed and 2×50 μl aliquots (duplicates) were transferred to 0.2 ml PCR tubes (Qiagen). Thermostability measurements were performed using a Rotor-Gene Q (Qiagen). Samples were equilibrated for 90 s at 25° C. before ramping from 25 to 99° C. at 4 s/° C. The melting temperature (Tm), corresponding to the inflection point of the curve, was derived from analysis using the Rotor-Gene Q software. Tm values were calculated as the mean±SEM from three independent experiments.
as §1

| Molecule | Stability in detergent measured by native DSF, 0.1% DDM [4] [°C] | Stability in detergent measured by native DSF, 0.1% LMNG [4] [°C] | Stability in detergent measured by native DSF, No detergent [4] [°C] | Stability measured by DSF [5] [°C] | also measured |
| --- | --- | --- | --- | --- | --- |
| Gs: non-lipidated Gs (Gαsβ1γ2) heterotrimer [reference compound] |  |  |  |  | shift of isoprenaline Ki of β1AR-84 in response to binding partner, 20° C. ([1]; relative to uncoupled […]): 9.6 fold |
| CCCc1ccccc1OCC(O)CNC(C)C (centres unmarked) [^3H-DHA, ^3H-dihydroalprenolol] |  |  |  |  | Kd [2]: 20 ± 3 nM |
| B1 | 36.2 ± 0.1 | 44.2 ± 0.2 | 47.2 ± 0.3 | 67.2 ± 0.4 | coupling of mini-Gs/q chimera to A2AR (thermostability assay and SEC) [3]: no binding |
| B2 |  |  |  | 72.1 ± 0.1 |  |
| B3 |  |  |  | 69.0 ± 0.1 |  |
| B4 | 37.4 ± 0.2 | 41.9 ± 0.0 | 44.3 ± 0.1 |  | Stability measured by DSF ([5]; listed as Golf 6): 64.8 ± 0.4 °C; Stability measured by DSF ([5]; listed as mini-Golf): 65 °C |
| B5 |  |  |  |  | shift of isoprenaline Ki of β1AR-84 in response to binding partner, 4° C. ([1]; relative to uncoupled […]): 21 fold |
| B6 | 39.1 ± 0.0 | 44.9 ± 0.2 | 47.7 ± 0.2 | 65.3 ± 0.0 | GTP-mediated dissociation of β1AR-84 complexes ([1]; 0.25 mM GTPγS): completely resistant |
| B7 |  |  |  |  | coupling of mini-Gs/q chimera to A2AR (thermostability assay and SEC) [3]: still observed |
| B8 | 35.9 ± 0.1 | 41.1 ± 0.1 | 44.8 ± 0.0 | 69.0 ± 0.1 |  |
| B9 | 41.2 ± 0.2 | 46.0 ± 0.1 | 50.3 ± 0.1 | 73 | Stability measured by DSF ([5]; listed as Gl2 8): 72.6 ± 0.3 °C |
| B10 | 32.6 ± 0.2 | 40.7 ± 0.1 | 43.6 ± 0.2 |  | Stability measured by DSF ([5]; listed as Go1 12): 63.8 ± 0.1 °C; Stability measured by DSF ([5]; listed as mini-Go1): 64 °C |
